Data: patent US20220213145A1 (Bicycle, published 2022)
Starred links: 1 amine or outer side, 2 acyl side, 3 side chain; linkers in the order of their positions; H or OH if unused. Positions of bridges follow the written chain, without caps; N, C: chain ends. Non-standard residues stand in square brackets, D forms with d. Primed or numbered codes have the meaning given here. No end group written: not given here. TATA′ = 1,3,5-triacryloylhexahydro-1,3,5-triazine scaffold bound to the three cysteines; TATA = O=C(CC[*:1])N1CN(C(=O)CC[*:2])CN(C(=O)CC[*:3])C1; Phe(4-Me) = Cc1ccc(C[C@H](N)C(=O)O)cc1; Ser(ΨH,HPro) = O=C(O)[C@@H]1COCN1; Nle = CCCC[C@H](N)C(=O)O; PEG3′ = not defined here; Ac5c = NC1(C(=O)O)CCCC1

How the values were obtained:
[1] = biological target: T1, human CD137 protein (direct binding assay) (human, UniProt Q07011 24-186, limits assumed); experiment: FP direct binding
T1 construct: Soluble CD137 protein titrated from 3 uM in the fluorescence polarisation assay; also called hCD137; TNFRSF9
Experimental: Affinity of the peptides of the invention for human CD137 (Ki) was determined using a fluorescence polarisation assay, in accordance with the methods disclosed in WO 2016/067035. […] CD137 protein was titrated starting at 3 μM in the same assay buffer as the peptide to assay 1 nM peptide in a total volume of 25 μL in black walled and bottomed low bind low volume 384 well plates. […] The concentrations of CD137 protein were 1 in 2 serial dilutions to give 12 different concentrations starting at 3 μM. Measurements were conducted on a BMG PHERAstar FS equipped with an FP 485 520 520 optic module at 25° C. with 200 flashes per well and a positioning delay of 0.1 second. Alternatively, the measurements were performed using Envision (PerkinElmer) equipped with FITC FP Dual Enh mirror, set to 30 flashes. Each well was measured every 5 minutes for 60 minutes. The gain used for analysis was determined for each tracer at the end of the 60 minutes where there was no protein in the well. The mP were fit to a standard 1:1 binding model with a quadratic equation to generate a Kd value.

[2] = biological target: CD137 on Jurkat reporter cells (Promega CD137 luciferase reporter assay) (UniProt Q07011 24-255, limits assumed); experiment: cell-based or functional assay
Sequence of CD137 on Jurkat reporter cells (Promega CD137 luciferase reporter assay) (Q07011 24-255 limits assumed): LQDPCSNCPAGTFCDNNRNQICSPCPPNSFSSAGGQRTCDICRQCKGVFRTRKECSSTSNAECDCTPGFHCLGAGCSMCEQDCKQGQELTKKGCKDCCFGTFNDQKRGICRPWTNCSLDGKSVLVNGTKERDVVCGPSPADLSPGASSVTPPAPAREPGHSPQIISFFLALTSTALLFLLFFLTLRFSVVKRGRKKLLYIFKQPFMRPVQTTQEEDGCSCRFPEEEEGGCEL

[3] = biological target: T2, Recombinant human CD137 homotrimer (R&D systems), biotinylated (human, UniProt Q07011 24-186, limits assumed, biotinylated with EZ-Link Sulfo-NHS-LC-LC-Biotin); experiment: SPR (Biacore T200), biotinylated CD137 on streptavidin
T2 construct: also called biotinylated CD137
Experimental: (§1) Biacore experiments were performed to determine kₐ (M⁻¹s⁻¹), kd (s⁻¹), KD (nM) values of peptides binding to human CD137 protein. […] The protein was desalted to remove uncoupled biotin using spin columns into PBS.
(§2) For analysis of binding, a Biacore T200 instrument was used utilising a XanTec CMD500D chip. Streptavidin was immobilized on the chip using standard amine-coupling chemistry at 25° C. with HBS-N (10 mM HEPES, 0.15 M NaCl, pH 7.4) as the running buffer. Briefly, the carboxymethyl dextran surface was activated with a 7 min injection of a 1:1 ratio of 0.4 M 1-ethyl-3-(3-dimethylaminopropyl) carbodiimide hydrochloride (EDC)/0.1 M N-hydroxy succinimide (NHS) at a flow rate of 10 μl/min. For capture of streptavidin, the protein was diluted to 0.2 mg/ml in 10 mM sodium acetate (pH 4.5) and captured by injecting 120 μl of onto the activated chip surface. Residual activated groups were blocked with a 7 min injection of 1 M ethanolamine (pH 8.5) and biotinylated CD137 captured to a level of 800-1800 RU. Buffer was changed to PBS/0.05% Tween 20 and a dilution series of the peptides was prepared in this buffer with a final DMSO concentration of 0.5%. The top peptide concentration was 500 nM or 10 μM with 6 further 3-fold (500 nm), or 2-fold (10 μM) dilutions in PBS/0.05% Tween 20. The SPR analysis was run at 25° C. at a flow rate of 90 μl/min with 60 seconds association and 100-600 seconds dissociation. After each cycle, a regeneration step (10 μl of 10 mM glycine pH 2) was employed. Data were corrected for DMSO excluded volume effects. All data were double-referenced for blank injections and reference surface using standard processing procedures and data processing and kinetic fitting were performed using Scrubber software, version 2.0c (BioLogic Software). Data were fitted using mass transport model allowing for mass transport effects where appropriate.

[4] = biological target: T2, Recombinant human CD137 homotrimer (R&D …); experiment: SPR (Biacore T200), biotinylated CD137 on streptavidin (n = 2)
Experimental: as §1
as §2, with “The SPR analysis was run at 25° C. at a flow rate of 90 μl/min with 60 seconds association and 100-600 seconds dissociation. After each cycle, a regeneration step (10 μl of 10 mM glycine pH 2) was employed. Data were corrected for DMSO excluded volume effects. All data were double-referenced for blank injections and reference surface using standard processing procedures and data processing and kinetic fitting were performed using Scrubber software, version 2.0c (BioLogic Software). Data were fitted using mass transport model allowing for mass transport effects where appropriate.” left out

B1: BCY7166 (peptide)
peptide: [PEG3′]ACIEE[dF]QYCFADPY[Nle]CA
modifications: linker 3-10-17 via TATA; also: fluorescein-labelled
notes: also called [PEG3]-(74-01-04) D-Phe4 Nle12
Kd [1]: 10 nM

B2: BCY7290 (peptide)
peptide: [PEG3′]ACIEEGQYCFAAPY[Nle]CA
modifications: linker 3-10-17 via TATA; also: fluorescein-labelled
notes: also called [PEG3]-(74-01-04) Ala9 Nle12
Kd [1]: > 3000 nM

B3: BCY7210 (peptide)
peptide: ACIEEGQYCFADPYXCA
modifications: [PEG3]ACIEEGQYCFADPY[tBuAla]CA; fluorescein-labelled; cyclised on TATA
notes: also called [PEG3]-(74-01-04) tBuAla12
Kd [1]: 70 nM

B4: BCY592 (peptide)
peptide: ACIEEGQYCFADPYMCA
modifications: linker 2-9-16 via TATA
IC50 (% inhibition of CD137L-induced NF-kB luciferase activity in CD137 Jurkat reporter cells) [2]: 3960 nM

B5: BCY8676 (peptide)
peptide: ACIEEGQYCFXDPYXCA
modifications: [Ac]ACIEEGQYCF[Abu]DPY[Nle]CA; cyclised on TATA
notes: also called Ac-(74-01-04) Abu8 Nle12
Kd [3]: 1000 nM

B6: BCY8658 (peptide)
peptide: Ac-AC[Ac5c]EEGQYCFADPY[Nle]CA
modifications: linker 2-9-16 via TATA
notes: also called Ac-(74-01-04) Ac5c1 Nle12
Kd [3]: 200 nM

B7: BCY7958 (peptide)
peptide: Ac-ACI[Ser(ΨH,HPro)]EGQYCFADPY[Nle]CA
modifications: linker 2-9-16 via TATA′
notes: also called Ac-(74-01-04) Oxa2 Nle12
Kd [3]: 20 nM

B8: BCY7961 (peptide)
peptide: Ac-ACIPE[dA]PYCFADPY[Nle]CA
modifications: linker 2-9-16 via TATA′
notes: also called Ac-(74-01-04) Pro2 DAla4 Pro5 Nle12
Kd [3]: 10 nM

B9: BCY8217 (peptide)
peptide: ACIEEGQYCFADPYXCA
modifications: ACIEEGQYCF[dA]DPY[Nle]CA; cyclised on TATA
notes: also called A-(74-01-04)-A D-Ala8 Nle12
Kd [3]: 500 nM

B10: BCY8665 (peptide)
peptide: Ac-ACIEE[Ac5c]QYCFADPY[Nle]CA
modifications: linker 2-9-16 via TATA
notes: also called Ac-(74-01-04) Ac5c4 Nle12
Kd [4]: 200 nM

B11: BCY8670 (peptide)
peptide: Ac-ACIEEGQ[Phe(4-Me)]CFADPY[Nle]CA
modifications: linker 2-9-16 via TATA
notes: also called Ac-(74-01-04) 4MePhe6 Nle12
Kd [3]: 1000 nM
